Reference: US20160113900A1, “INHIBITORS OF MITOCHONDRIAL STAT3 AND USES THEREOF IN MODULATION OF MAST CELL EXOCYTOSIS” (Yissum Research Development Company of the Hebrew …, priority 2014, published 2016)

B1: PIAS3-mito: PIAS3 fused to a mitochondrial target sequence, expressed from a transfected plasmid (SEQ ID NO. 16) (protein)
chain: MSVLTPLLLRGLTGSARRLPVPRAKIHSLLQVDSFRVSELQVLLGFAGRNKSGRKHELLAKALHLLKSSCAPSVQMKIKELYRRRFPRKTLGPSDLSLLSLPPGTSPPVHPDVTMKPLPFYEVYGELIRPTTLASTSSQRFEEAHFTFALTPQQLQQILTSREVLPGAKCDYTIQVQLRFCLCETSCPQEDYFPPNLFVKVNGKLCPLPGYLPPTKNGAEPKRPSRPINITPLARLSATVPNTIVVNWSSEFGRNYSLSVYLVRQLTAGTLLQKLRAKGIRNPDHSRALIKEKLTADPDSEVATTSLRVSLMCPLGKMRLTVPCRALTCAHLQSFDAALYLQMNEKKPTWTCPVCDKKAPYESLIIDGLFMEILNSCSDCDEIQFMEDGSWCPMKPKKEASEVCPPPGYGLDGLQYSAVQEGIQPESKKRVEVIDLTIESSSDEEDLPPTKKHCPVTSAAIPALPGSKGALTSGHQPSSVLRSPAMGTLGSDFLSSLPLHEYPPAFPLGADIQGLDLFSFLQTESQHYGPSVITSLDEQDTLGHFFQYRGTPSHFLGPLAPTLGSSHRSSTPAPPPGRVSSIVAPGSSLREGHGGPLPSGPSLTGCRSDVISLD

Tests used:
Format in all cases: cell-based, rat
RBL cells [1] = test: β-Hexosaminidase release assay (degranulation) in RBL cells
Experimental: (§1) RBL-2H3 cells were maintained in RPMI 1640 medium as previously described1. Bone marrow was isolated from 5-6 week-old mice, and BMMC were cultured in RPMI medium supplemented with 20 ng/ml interleukin-3 (IL-3) and 20 ng/ml SCF as previously described2, 3. Cells were generally grown for a minimum of 4 weeks and used when >90% of the population expressed FcεRI. BMMC and RBL cells were sensitized first with anti-DNP IgE monoclonal antibody (SPE-7; Sigma-Aldrich Corp.) and then challenged with DNP-BSA (Sigma-Aldrich Corp.). IgE antibody was centrifuged (18,000 g, 5 min) before use to remove aggregates. […] For glycolysis elimination cells were maintained in glucose-free RPMI supplemented with 10% dialyzed fetal calf serum and 5 mM galactose.
1×104 RBL or 3×104 BMMC were immunologically activated as described above. After IgE incubation, the cells were washed three times with 5 mL of degranulation buffer (NaCl 130 mM, KCl 5 mM, Glucose 5.6 mM, MgCl2 1 mM, CaCl2 1.2 mM, Hepes pH 7.4 10 mM, BSA 0.1%) and resuspended in 200 μL of the same buffer with DNP-albumin for 30 min. The release of β-hexosaminidase was determined in triplicates in a 96-well plate. Aliquots (20 μL) of supernatants and cell lysates were incubated for 30 minutes with 100 μL of substrate solution (1.3 mg/mL p-nitrophenyl-b-D-2-acetamido-2-deoxyglucopyranozide in 0.1 M citrate [pH 4.51]). The reaction was stopped by the addition of 200 μL of 0.2 M glycine (pH 10.7). The plate OD was read in an enzyme-linked immunosorbent assay (ELISA) reader at a wavelength of 405 nm Percent release values for each experimental condition were calculated3.

RBL cells [2] = test: Oxygen consumption (Seahorse XF analyzer) in RBL cells; details: RBL cells transfected with PIAS3-mito vs empty plasmid
Experimental: as §1
Oxygen consumption rate (OCR) was measured using an XF24 extracellular flux analyzer (Seahorse Biosciences, North Billeric, Mass., USA).

RBL cells [3] = test: ATP determination (ATPLite luminescence) in RBL cells; details: RBL cells transfected with PIAS3-mito vs empty plasmid, activated 5 min
Experimental: as §1
ATP levels were measured using the ATPLite luminescence-based assay according to the manufacturer's instructions (Perkin Elmer, Waltham, Mass., USA).

Molecule	degranulation (RBL cells [1]; immunologically activated RBL cells, 250 μM C188-9, 10 min)	decrease in degranulation (RBL cells [1]; RBL cells transfected with PIAS3-mito vs empty plasmid) [%]	oxygen consumption in activated cells compared to activated control cells (RBL cells [2])	decrease in ATP levels of activated cells compared to control (RBL cells [3]) [%]
COc1ccc(S(=O)(=O)Nc2cc(-c3c(O)ccc4ccccc34)c(O)c3ccccc23)cc1 [Mitocur C188-9, N-(1′,2-Dihydroxy-1,2′-binaphthalen-4′-yl)-4-methoxybenzenesulfonamide]	abolished	–	–	–
B1	–	67.5±15.0	did not change	15.9±1.6
